“Also recorded” adds a separate entry of the source. Where two headings read alike, the source gives them in different places.
Key:
Hev b 6 specific IgE = assay: ELISA for Hev b 6 specific human IgE (Examples 8 and 9); format: binding; settings: for frequency of IgE reactivity in non-latex allergic subjects: 18 non-latex allergic subjects, compared with 6%; for latex allergic subjects positive for IgE binding by ELISA (positive/total) / latex allergic subjects positive for IgE binding by ELISA: 31 latex allergic subjects; for latex allergic subjects positive for IgE binding by ELISA: cut-off mean + 2 SD of non-latex allergic; for IgE binding by ELISA: sera of latex allergic, Hev b 6 sensitised subjects
Description: (§1) FIG. 6 is an image of sulphonation abolishing the IgE reactivity of rHev b 6. rHev b 6 (A) and sulphonated rHev b 6 (B) were resolved by 16% SDS-PAGE under non-reducing conditions. Gels were either stained with Coomassie Brilliant Blue (1) or transferred to nitrocellulose. Strips with transferred protein were incubated with the Hev b 6-specific mAb 1A5.4 and binding detected (2). Strips with transferred protein were also incubated with sera from two latex allergic, Hev b 6 sensitized subjects (3 and 4) and one non-latex-allergic, atopic subject (5). The presence or absence of IgE binding was then detected. […] Plates were coated with rHev b 6 and sulphonated rHev b 6 and the presence or absence of IgE-binding detected. As a positive control the Hev b 6-specific mAb 1A5 was used. NB indicates no binding of IgE was detected.
(§2) FIG. 7 is a graphical representation of the disruption of the first disulphide bond of Hev b 6 markedly decreasing IgE binding to rHev b6. IgE from the sera of 31 latex allergic and 18 non-latex allergic subjects assayed by ELISA for the ability to bind rHev b 6 (no substitution) and mutant rHev b 6 (cysteine to alanine substitution at amino acid 3). Plates were coated with both rHev b 6 and mutant rHev b 6 and incubated with subjects' sera (A) Population ELISA. Individual dots represent individual readings. The thin horizontal lines indicated the cut-off for positive for IgE binding to mutant rHev b 6 and rHev b 6, calculated as the mean of the readings for non-latex allergic subjects for each antigen plus 2 SD. The thick horizontal lines indicate the mean of each group. (B) Direct comparison of IgE and mAb binding to rHev b 6 and mutant rHev b 6. A1 to 11, latex-allergic subjects. N1, non-latex allergic subject. Dotted line indicates the cut-off for positive for IgE binding for mutant rHev b 6. The solid line indicates the cut-off for positive for IgE binding for rHev b 6.
(§3) Patient serum samples were tested for Hev b 6 specific IgE using our standard ELISA protocol (Sutherland et al. 2002, supra) with rabbit anti-human IgE (Dako, Denmark) at 1 in 1000 dilution followed by swine anti-rabbit IgG-HRP conjugate (Promega) at I in 1000 dilution. For the Hev b 6-specific mAb 1A5.4 (IgG1/kappa isotype) binding was detected using sheep anti-mouse Ig-HRP (Silenus) at 1 in 1000 dilution.

[1] = tested on: Hev b 6-specific mAb 1A5.4; assay: ELISA for Hev b 6-specific mAb binding to rHev b 6 forms; design: species or system mouse
Description: as §1, §2, §3

basophils = assay: Basophil Activation Test; format: cell-based, human; settings: for activated basophils / basophil activation above background / basophils activated (above background): 10 μg/ml; for basophil activation above background levels / basophil activation over background: latex allergic subjects; for basophil activation above background levels: 0.1 μg/ml (FIGS. 9B and C); for basophil activation over background: 1 μg/ml; for basophil activation: non-latex allergic control subject N2; for basophil activation above background: one subject (FIG. 9B); for basophils activated (above background): latex allergic subjects (FIGS. 9B, C and D)
Description: FIG. 9 is a graphical representation of the basophil Activation Test on a latex allergic donor. Whole blood from a latex allergic, Hev b 6 sensitized subject was incubated with latex allergens. The cells were stained with FITC labelled anti-human IgE polyclonal antibodies and a PE labelled monoclonal anti-human CD63 antibody. Cells were analysed by flow cytometry defining basophils on the basis of scatter (A) and high IgE staining (B). The percentage of activated basophils expressing CD63 was determined (C).
The Basophil Activation Test was performed on whole blood from (A) non-latex allergic subject N2; (B) latex-allergic subject A7; (C) latex-allergic subject A8 and (D) latex-allergic subject A10. Antigens: latex glove extract (GE), hevein peptide (hevein), rHev b 6, mutant rHev b 6 (MU rHev b 6), sulphonated rHev b 6, (sul. rHev b 6), rHev b 5, KLH and house dust mite extract (HDM). All allergens were used at 10 μg/ml except for rHev b 6 and mutant rHev b 6 which were used at 0.1, 1 and 10 μg/ml. The cut-off for positive was set at the level of activated basophils after incubation in stimulation buffer alone (no antigen, horizontal line). A plus symbol (+) indicates antigen to which a subject has either a positive clinical history of allergy and/or a positive reading on an allergen-specific IgE ELISA.
A basophil activation assay based on flow cytometry was used to quantify the activation of basophils after incubation with various allergens. This assay was modified from Paris-Kohler A, Demoly P, Persi L, Lebel B, Bousquet J, Arnoux B. In vitro diagnosis of cypress pollen allergy by using cytofluorimetric analysis of basophils (Basotest). J Allergy Clin Immunol 2000; 105:339-45. Whole blood was collected in 6 ml heparinised vacutainers (Greiner). 100 μl aliquots were preincubated with stimulation buffer (20 mM Hepes, 133 mM NaCl, 5 mM KCl, 7 mM CaCl2, 3.5 mM MgCl2, 1 mg/ml BSA, 20 μl/ml heparin, pH 7.4) containing 2 ng/ml IL-3, for 10 min at 37° C., to increase the sensitivity of the assay. Samples were incubated for 20 min at 37° C. with 100 μl of stimulation buffer alone or stimulation buffer containing either rabbit anti-human IgE (Dako) at 1 in 500 dilution, 2 μM N-fMLP (Sigma, Mo, USA), crude allergen extracts, recombinant latex allergens or Keyhole Limpet Haemocyanin (KLH) (Sigma, Mo, USA). Basophil activation was stopped by incubating at 4° C. for 5 min. Normal goat serum (10 μl) was added to each tube to block non-specific binding of the detection antibody (goat anti-human IgE-FITC) and incubated for 10 min at 4° C. Samples were incubated with goat anti-human IgE-FITC (Caltag, Birmingham, Calif.) at a dilution of 1 in 2.5, and mouse anti-human CD63-R-Phycoerythrin (PE; Caltag, Birmingham, Calif.) at a dilution of 1 in 20, in a 20 μl volume of wash buffer (20 mM HEPES, 133 mM NaCl, 5 mM KCl, 0.27 mM EDTA, pH7.3). RBC were lysed by the addition of 2 ml FACS lysing solution (39 mM NH4Cl, 2.5 mM KHCO3, 0.2 mM EDTA) and incubation for 10 min at room temperature. Cells were centrifuged (250 g, 5 min at 4° C.), resuspended in 3 ml wash buffer, and centrifuged as before. Pellets were resuspended in 200 μl wash buffer, and analysed by flow cytometry (FACScalibur, Becton Dickinson) within 2 h of the experiment. 7AAD (Sigma, Mo, USA) was added to the samples 5 min prior to FACS analysis.

Molecule | frequency of IgE reactivity in non-latex allergic subjects (Hev b 6 specific IgE) | latex allergic subjects positive for IgE binding by ELISA (positive/total) (Hev b 6 specific IgE) | latex allergic subjects positive for IgE binding by ELISA (Hev b 6 specific IgE) | IgE binding by ELISA (Hev b 6 specific IgE) | Hev b 6-specific mAb binding by ELISA [1] | Hev b 6-specific mAb binding by ELISA ([1]; listed as rHevb 6) | activated basophils (basophils; another patient (FIG. 9C)) | basophil activation above background levels (basophils) | basophil activation over background (basophils) | basophil activation (basophils) | basophil activation above background (basophils) | activated basophils (basophils; third patient) | basophils activated (above background) (basophils)
rHev b 6: recombinant Hev b 6 (prohevein) expressed in E. coli from pPROEX-HTa with 6-His tag (protein, left off: small tags and cut ends, recombinant Hev b 6 (prohevein) expressed in E. coli from pPROEX-HTa with 6-His tag) EQCGRQAGGKLCPNNLCCSQWGWCGSTDEYCSPDHNCQSNCKDSGEGVGGGSASNVLATYHLYNSQDHGWDLNAASAYCSTWDANKPYSWRSKYGWTAFCGPVGAHGQSSCGKCLSVTNTGTGAKTTVRIVDQCSNGGLDLDVNVFRQLDTDGKGYERGHITVNYQFVDCGDSFNPLFSVMKSSVIN | same frequency | 21/31 | 68% | bound | bound to a similar extent | comparable reactivity | 60% | 30-50% | 50-60% | negligible | 60% | 70% | 
sulphonated rHev b 6: purified rHev b 6 sulphonated in sulphonation buffer to improve solubility (protein, left off: small tags and cut ends) EQCGRQAGGKLCPNNLCCSQWGWCGSTDEYCSPDHNCQSNCKDSGEGVGGGSASNVLATYHLYNSQDHGWDLNAASAYCSTWDANKPYSWRSKYGWTAFCGPVGAHGQSSCGKCLSVTNTGTGAKTTVRIVDQCSNGGLDLDVNVFRQLDTDGKGYERGHITVNYQFVDCGDSFNPLFSVMKSSVIN |  |  |  | no detectable binding; also recorded: lack of reactivity | bound to a similar extent |  |  |  |  |  |  |  | less than 5%
mutant rHev b 6: rHev b 6 with cysteine to alanine substitution at amino acid 3 of the mature protein (protein, left off: small tags and cut ends, rHev b 6 with cysteine to alanine substitution at amino acid 3 of the mature protein) EQAGRQAGGKLCPNNLCCSQWGWCGSTDEYCSPDHNCQSNCKDSGEGVGGGSASNVLATYHLYNSQDHGWDLNAASAYCSTWDANKPYSWRSKYGWTAFCGPVGAHGQSSCGKCLSVTNTGTGAKTTVRIVDQCSNGGLDLDVNVFRQLDTDGKGYERGHITVNYQFVDCGDSFNPLFSVMKSSVIN | same frequency | 2/31 | 6% |  | comparable reactivity |  | 40% | no activation above background levels | 5-10% | negligible | 15% | no activation | up to 49%

From patent US20060233785A1, “Immunointeractive molecules and uses thereof” (priority 2001, published 2006)
